{
  "source": "patent US20180362616",
  "proteins": {"B1": {"name": "human mesotrypsin (catalytically active) (protein)", "chain": "IVGGYTCEENSLPYQVSLNSGSHFCGGSLISEQWVVSAAHCYKTRIQVRLGEHNIKVLEGNEQFINAAKIIRHPKYNRDTLDNDIMLIKLSSPAVINARVSTISLPTTPPAAGTECLISGWGNTLSFGADYPDELKCLDAPVLTQAECKASYPGKITNSMFCVGFLEGGKDSCQRDSGGPVVCNGQLQGVVSWGHGCAWKNRPGVYTKVYNYVDWIKDTIAANS"}},
  "target": "T1, APPI-WT (SEQ ID NO: 25), soluble, expressed in Pichia pastoris",
  "T1 chain": "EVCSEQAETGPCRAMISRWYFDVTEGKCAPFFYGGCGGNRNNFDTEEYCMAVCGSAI",
  "data": [
    {"protein": "B1", "values": [
      {"measurement": "Kcat (s^-1) of hydrolysis of APPI by mesotrypsin (HPLC time course)", "result": 0.0356, "unit": "s⁻¹"}
    ]}
  ]
}
